Reference: article PMC9684555, “Structure- and computational-aided engineering of an oxidase to produce isoeugenol from a lignin-derived compound” (Nature Communications, 2022)

What was measured:
CCCc1ccc(O)c(OC)c1 = system: T1, CCCc1ccc(O)c(OC)c1; test: purified protein; format: biochemical, Rhodococcus jostii; details: 50 mM KPi pH 7.5, 10% v/v DMSO, 10 µM to 1 mM substrate, O2 co-substrate
T1 construct: full length, 526 residues, C-terminal His6 tag (pBAD-EUGO-His6x), E. coli NEB10beta; covalent FAD; homodimer; mutants for crystals from His-SUMO fusion, tag cleaved

COc1cc(CO)ccc1O = system: T2, COc1cc(CO)ccc1O; test: purified protein; format: biochemical, Rhodococcus jostii; details: 50 mM KPi pH 7.5, O2 co-substrate, 0.05 µM enzyme
T2 construct: full length, 526 residues, C-terminal His6 tag (pBAD-EUGO-His6x), E. coli NEB10beta; covalent FAD; homodimer; mutants for crystals from His-SUMO fusion, tag cleaved

EUGO (eugenol oxidase) (Rhodococcus jostii RHA1; A423M/D151E/H434Y/I445D/Q425S/S394V/S518P/S81H)
Km (CCCc1ccc(O)c(OC)c1; 100 nM enzyme): 7.4 ± 0.4 µM
kcat (CCCc1ccc(O)c(OC)c1; 100 nM enzyme): 0.43 ± 0.007 s⁻¹
Km (COc1cc(CO)ccc1O): 94.9 ± 7.8 µM
kcat (COc1cc(CO)ccc1O): 2.8 ± 0.07 s⁻¹

EUGO (eugenol oxidase) (Rhodococcus jostii RHA1; A423M/D151E/H434Y/I445D/S394V/S518P/S81H)
Km (CCCc1ccc(O)c(OC)c1; 1.0 µM enzyme): 3.0 ± 0.2 µM
kcat (CCCc1ccc(O)c(OC)c1; 1.0 µM enzyme): 0.08 ± 0.002 s⁻¹
Km (COc1cc(CO)ccc1O): 2.9 ± 0.2 µM
kcat (COc1cc(CO)ccc1O): 0.15 ± 0.002 s⁻¹

EUGO (eugenol oxidase) (Rhodococcus jostii RHA1; A423M/H434Y/I445D/S394V/S518P/S81H)
Km (CCCc1ccc(O)c(OC)c1; 1.0 µM enzyme): 3.4 ± 0.4 µM
kcat (CCCc1ccc(O)c(OC)c1; 1.0 µM enzyme): 0.028 ± 0.0003 s⁻¹
Km (COc1cc(CO)ccc1O): 7.1 ± 0.6 µM
kcat (COc1cc(CO)ccc1O): 0.075 ± 0.001 s⁻¹

EUGO (eugenol oxidase) (Rhodococcus jostii RHA1; A423M/H434Y/I445D/S518P/S81H)
Km (COc1cc(CO)ccc1O): 177.6 ± 15.8 µM
kcat (COc1cc(CO)ccc1O): 4.8 ± 0.2 s⁻¹
